# Experimental data published in publication doi:10.1101/2021.03.16.435520 (bioRxiv, 2021).
# Biological target: the molecule itself
# Experiment: cross-linking
protein,measurement,value
"IRE1-KR-R887A, unphosphorylated (domain or fragment) GSSPSLEQDDGDEETSVVIVGKISFCPKDVLGHGAEGTIVYRGMFDNRDVAVKRILPECFSFADREVQLLRESDEHPNVIRYFCTEKDRQFQYIAIELCAATLQEYVEQKDFAHLGLEPITLLQQTTSGLAHLHSLNIVHRDLKPHNILISMPNAHGKIKAMISDFGLCKKLAVGRHSFSRRSGVPGTEGWIAPEMLSEDCKENPTYTVDIFSAGCVFYYVISEGSHPFGKSLQRQANILLGACSLDCLHPEKHEDVIARELIEKMIAMDPQKRPSAKHVLKHPFFWSLEKQLQFFQDVSDRIEKESLDGPIVKQLERGGRAVVKMDWRENITVPLQTDLAKFRTYKGGSVRDLLRAMRNKKHHYRELPAEVRETLGSLPDDFVCYFTSRFPHLLAHTYRAMELCSHERLFQPYYFHEPPEPQPPVTPDAL",stoichiometry N,2
